The target of one series is T1, POLγB-RKK (UniProt Q9UHN1 26-485, R363A;K364A;K365A).
T1 sequence: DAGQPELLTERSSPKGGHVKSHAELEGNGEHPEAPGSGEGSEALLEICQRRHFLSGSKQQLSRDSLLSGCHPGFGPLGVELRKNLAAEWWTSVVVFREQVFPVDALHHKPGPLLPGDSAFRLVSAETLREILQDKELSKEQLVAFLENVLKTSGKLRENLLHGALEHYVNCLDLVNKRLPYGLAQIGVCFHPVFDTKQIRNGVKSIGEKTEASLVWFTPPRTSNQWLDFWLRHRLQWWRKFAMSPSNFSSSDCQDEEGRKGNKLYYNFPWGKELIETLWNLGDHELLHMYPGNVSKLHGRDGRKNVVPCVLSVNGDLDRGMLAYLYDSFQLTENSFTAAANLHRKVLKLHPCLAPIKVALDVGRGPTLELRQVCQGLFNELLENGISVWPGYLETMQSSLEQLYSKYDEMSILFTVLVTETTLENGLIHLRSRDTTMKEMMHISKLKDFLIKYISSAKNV
Nature of the series: EMSA.

The target of series [1] is T2, POLγB wild type (accessory subunit of DNA polymerase γ) (UniProt Q9UHN1 26-485).
T2 sequence: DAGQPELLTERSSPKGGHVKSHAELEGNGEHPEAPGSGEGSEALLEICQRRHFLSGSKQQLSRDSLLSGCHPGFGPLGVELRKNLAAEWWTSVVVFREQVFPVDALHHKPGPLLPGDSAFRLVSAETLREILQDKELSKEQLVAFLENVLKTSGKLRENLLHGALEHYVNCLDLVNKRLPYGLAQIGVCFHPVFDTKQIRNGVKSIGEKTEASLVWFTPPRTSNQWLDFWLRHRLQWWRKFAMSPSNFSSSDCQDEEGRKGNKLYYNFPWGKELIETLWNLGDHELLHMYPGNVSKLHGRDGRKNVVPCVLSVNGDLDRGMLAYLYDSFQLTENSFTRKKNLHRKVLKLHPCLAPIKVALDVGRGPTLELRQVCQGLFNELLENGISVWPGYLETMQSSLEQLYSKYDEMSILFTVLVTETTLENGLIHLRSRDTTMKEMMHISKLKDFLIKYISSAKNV
Nature of the series: EMSA.

For a further series, the target named is T3, POLγB-VV (UniProt Q9UHN1 26-485, V119A;V125A).
T3 sequence: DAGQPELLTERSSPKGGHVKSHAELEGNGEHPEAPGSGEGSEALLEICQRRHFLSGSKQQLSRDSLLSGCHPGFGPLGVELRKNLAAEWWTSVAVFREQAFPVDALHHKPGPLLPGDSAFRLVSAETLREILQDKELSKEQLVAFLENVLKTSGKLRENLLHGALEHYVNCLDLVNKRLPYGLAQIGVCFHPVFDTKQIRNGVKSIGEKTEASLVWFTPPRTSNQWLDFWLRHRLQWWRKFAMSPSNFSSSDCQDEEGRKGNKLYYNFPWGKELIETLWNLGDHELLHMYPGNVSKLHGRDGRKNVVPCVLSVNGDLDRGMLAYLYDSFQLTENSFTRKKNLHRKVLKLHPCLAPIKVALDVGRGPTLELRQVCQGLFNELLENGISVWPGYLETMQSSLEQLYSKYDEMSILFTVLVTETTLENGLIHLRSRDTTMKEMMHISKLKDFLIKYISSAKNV
Nature of the series: EMSA.

In a further series the target is T4, POLγB-RK (UniProt Q9UHN1 26-485, R328A;K329A).
T4 sequence: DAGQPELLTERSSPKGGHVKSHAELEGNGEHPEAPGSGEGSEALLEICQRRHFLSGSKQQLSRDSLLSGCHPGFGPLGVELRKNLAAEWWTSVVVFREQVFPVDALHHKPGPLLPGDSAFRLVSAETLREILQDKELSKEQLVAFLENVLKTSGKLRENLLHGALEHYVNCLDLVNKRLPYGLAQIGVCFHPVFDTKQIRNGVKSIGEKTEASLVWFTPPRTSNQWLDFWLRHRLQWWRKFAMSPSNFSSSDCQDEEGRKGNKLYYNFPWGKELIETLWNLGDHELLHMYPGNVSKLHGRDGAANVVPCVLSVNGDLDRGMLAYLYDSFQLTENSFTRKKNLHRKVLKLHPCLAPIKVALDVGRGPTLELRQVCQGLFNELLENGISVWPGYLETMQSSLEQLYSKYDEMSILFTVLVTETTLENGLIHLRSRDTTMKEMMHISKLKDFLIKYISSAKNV
Kind of series: EMSA.

In series [2] the target is POLγA (catalytic subunit of DNA polymerase γ);POLγB-VV (Homo sapiens?;Homo sapiens?, UniProt P54098;Q9UHN1 26-1239;26-485, |V119A;V125A). Kind of series: EMSA supershift.
Series [3] has as its target POLγA (catalytic subunit of DNA polymerase γ);POLγB-RK (Homo sapiens?;Homo sapiens?, UniProt P54098;Q9UHN1 26-1239;26-485, |R328A;K329A). Kind of series: EMSA, competitor challenge.
In series [4] the target is POLγA (catalytic subunit of DNA polymerase γ);POLγB-RKK (Homo sapiens?;Homo sapiens?, UniProt P54098;Q9UHN1 26-1239;26-485, |R363A;K364A;K365A). Kind of series: EMSA, competitor challenge.
Series [5] concerns the target POLγA (catalytic subunit of DNA polymerase γ) (UniProt P54098 26-1239). Kind of series: EMSA.

Sequence of POLγA (catalytic subunit of DNA polymerase γ) (P54098 26-1239): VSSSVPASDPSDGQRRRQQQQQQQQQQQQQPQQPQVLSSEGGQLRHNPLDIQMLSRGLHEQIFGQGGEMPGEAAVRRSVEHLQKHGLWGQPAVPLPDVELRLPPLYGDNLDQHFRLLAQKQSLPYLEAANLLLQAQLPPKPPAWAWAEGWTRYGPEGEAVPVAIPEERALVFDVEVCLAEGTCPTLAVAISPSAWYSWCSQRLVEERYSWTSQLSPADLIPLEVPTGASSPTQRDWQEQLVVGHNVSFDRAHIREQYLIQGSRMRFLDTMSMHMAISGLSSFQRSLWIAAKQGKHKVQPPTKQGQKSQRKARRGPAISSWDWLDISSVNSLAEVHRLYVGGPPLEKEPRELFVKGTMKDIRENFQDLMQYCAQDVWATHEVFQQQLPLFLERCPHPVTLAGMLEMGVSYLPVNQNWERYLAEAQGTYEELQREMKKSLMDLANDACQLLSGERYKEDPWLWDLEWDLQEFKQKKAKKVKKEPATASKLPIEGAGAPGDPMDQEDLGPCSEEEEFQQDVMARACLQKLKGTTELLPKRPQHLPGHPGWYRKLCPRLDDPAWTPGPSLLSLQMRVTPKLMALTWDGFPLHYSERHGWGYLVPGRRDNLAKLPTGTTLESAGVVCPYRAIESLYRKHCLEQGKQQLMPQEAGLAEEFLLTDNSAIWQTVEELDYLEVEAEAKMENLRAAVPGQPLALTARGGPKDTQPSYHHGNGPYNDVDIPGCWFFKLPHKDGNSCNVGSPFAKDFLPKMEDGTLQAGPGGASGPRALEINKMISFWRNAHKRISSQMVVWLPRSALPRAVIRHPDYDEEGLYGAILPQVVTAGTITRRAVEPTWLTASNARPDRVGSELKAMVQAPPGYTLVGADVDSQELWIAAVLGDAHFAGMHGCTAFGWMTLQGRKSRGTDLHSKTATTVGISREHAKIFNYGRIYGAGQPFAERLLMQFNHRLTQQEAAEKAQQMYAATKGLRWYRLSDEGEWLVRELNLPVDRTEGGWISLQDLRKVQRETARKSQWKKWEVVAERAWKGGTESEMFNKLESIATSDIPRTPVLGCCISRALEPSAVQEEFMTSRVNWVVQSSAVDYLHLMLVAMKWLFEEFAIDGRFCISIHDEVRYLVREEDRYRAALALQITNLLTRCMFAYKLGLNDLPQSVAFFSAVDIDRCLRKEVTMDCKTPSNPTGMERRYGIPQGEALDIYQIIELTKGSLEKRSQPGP
Sequence of POLγA (catalytic subunit of DNA polymerase γ);POLγB-RKK (P54098 26-1239, stated change not applied, one chain of several): as the sequence (P54098 26-1239) above
Sequence of POLγA (catalytic subunit of DNA polymerase γ);POLγB-RK (P54098 26-1239, stated change not applied, one chain of several): as the sequence (P54098 26-1239) above
Sequence of POLγA (catalytic subunit of DNA polymerase γ);POLγB-VV (P54098 26-1239, stated change not applied, one chain of several): as the sequence (P54098 26-1239) above

B1: 50-bp dsDNA probe (dsDNA)
DNA 1: GGCGTATATCCAAATTAAAAGCATTTTTGATTGCATATATATCATCAGCT
DNA 2: AGCTGATGATATATATGCAATCAAAAATGCTTTTAATTTGGATATACGCC
As for B1, the binding result with POLγB-RKK was “no binding”; in series [1], “binds”; with POLγB-VV, “binds”; in the series with POLγB-RK, “no binding”.

B2: primed DNA template (35-mer/20-mer) (mixed)
DNA 1: TTTTTTTTTTATCCGGGCTCCTCTAGACTCGACCG
DNA 2: CGGTCGAGTCTAGAGGAGCC
As to B2, the binding result in series [2], in series [3], in series [4] and in series [5] was “binds” each time.

(Values after PMC1807957.)
